Test results from the supplement of paper PMC9233669.
Variants at the floor of the assay were thinned out.

Tests used:
biotinyl-Met-oxazolone = test: self-aminoacylation, catalytic enhancement (BMO) (fold over background); higher = more active; k-Seq, kA / k0A0; sequences stand for … in GGGAAUGGAUCCACAUCUACGAAUUC…UUCACUGCAGACUUGACGAAGCUG
Outline: (§1)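 Working in 50 μL HEPES/NaCl/KCl/MgCl2/CaCl2 buffer with 5% acetonitrile at pH 6.9–7.0, mutagenized RNA pools (0.43 μM; 21-nt variable region) were reacted with 2–1250 μM of each biotinyl-aminoacyl-oxazolone for 90 minutes at room temperature. Streptavidin capture followed, with quantification by triplicate qPCR and Illumina sequencing. Catalytic enhancement is reported as median kA over the uncatalyzed rate, the low-activity peak of a bimodal Gaussian fit to the data.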

biotinyl-Ile-oxazolone = test: self-aminoacylation, catalytic enhancement (BIO) (fold over background); higher = more active; k-Seq, kA / k0A0; sequences stand for … in GGGAAUGGAUCCACAUCUACGAAUUC…UUCACUGCAGACUUGACGAAGCUG
Outline: as §1

biotinyl-Leu-oxazolone = test: self-aminoacylation, catalytic enhancement (BLO) (fold over background); higher = more active; k-Seq, kA / k0A0; sequences stand for … in GGGAAUGGAUCCACAUCUACGAAUUC…UUCACUGCAGACUUGACGAAGCUG
Outline: as §1

biotinyl-Val-oxazolone = test: self-aminoacylation, catalytic enhancement (BVO) (fold over background); higher = more active; k-Seq, kA / k0A0; sequences stand for … in GGGAAUGGAUCCACAUCUACGAAUUC…UUCACUGCAGACUUGACGAAGCUG
Outline: as §1

biotinyl-Trp-oxazolone = test: self-aminoacylation, catalytic enhancement (BWO) (fold over background); higher = more active; k-Seq, kA / k0A0; sequences stand for … in GGGAAUGGAUCCACAUCUACGAAUUC…UUCACUGCAGACUUGACGAAGCUG
Outline: as §1

biotinyl-Phe-oxazolone = test: self-aminoacylation, catalytic enhancement (BFO) (fold over background); higher = more active; k-Seq, kA / k0A0; sequences stand for … in GGGAAUGGAUCCACAUCUACGAAUUC…UUCACUGCAGACUUGACGAAGCUG
Outline: as §1

Sequence | self-aminoacylation (biotinyl-Met-oxazolone) | self-aminoacylation (biotinyl-Ile-oxazolone) | self-aminoacylation (biotinyl-Leu-oxazolone) | self-aminoacylation (biotinyl-Val-oxazolone) | self-aminoacylation (biotinyl-Trp-oxazolone) | self-aminoacylation (biotinyl-Phe-oxazolone)
AAGUUUACUAAUAGUCGCAGG [Fam3.1 aminoacylation ribozyme variant] | 1.25 | 1.55 | 1.6 | 1.34 | 1.61 | 2.36
AUUCCCCUGGUCAUCCAGUGA [Fam2.1 aminoacylation ribozyme variant] | 11.6 | 6.96 | 13.2 | 6.74 | 14.3 | 98.5
AUAAGCCUGGUCAUCGAGUGA [Fam2.1 aminoacylation ribozyme variant] | 6.25 | 4.71 | 7.06 | 4.25 | 9.48 | 29.4
AAGUUUGCUAAUAGUCGAAAU [Fam3.1 aminoacylation ribozyme variant] | 1.39 | 1.31 | 1.01 | 1.37 | 2 | 1.52
AUUCAGCUAGGUCAUCGGUUG [Fam2.2 aminoacylation ribozyme variant] | 1.16 | 0.882 | 1.07 | 0.865 | 1.25 | 5.67
GCACACUUCAAGCUAUCGGUC [Fam1B.1 aminoacylation ribozyme variant] | 1.36 | 1.48 | 1.35 | 1.48 | 1.81 | 1.47
AUUCACCUAGGUUAUGGGGUG [Fam2.2 aminoacylation ribozyme variant] | 8.25 | 5.44 | 11.2 | 4.76 | 8.28 | 78.4
AUGACCCUGGUCAUCGAGUGC [Fam2.1 aminoacylation ribozyme variant] | 7.15 | 2.61 | 6.92 | 2.96 | 4 | 17.4
CUACUCCAAACAGUCGGUCUG [Fam1A.1 aminoacylation ribozyme variant] | 0.958 | 0.953 | 1.1 | 1.06 | 0.323 | 3.1
CCCCACUUCAAGCAAGCGGUC [Fam1B.1 aminoacylation ribozyme variant] | 2.33 | 2.15 | 2.61 | 2.38 | 5 | 9.34
AUUCACCUUGGUCUUCGGGUG [Fam2.2 aminoacylation ribozyme variant] | 4.81 | 3.75 | 6.07 | 4.25 | 5.01 | 37.3
AUAGCCCUGGUCAUCGAGUGA [Fam2.1 aminoacylation ribozyme variant] | 19.9 | 8.62 | 20.3 | 7.53 | 21.6 | 78.5
AUUACCCUGGUCAUAAAGUGA [Fam2.1 aminoacylation ribozyme variant] | 11.1 | 4.88 | 10.3 | 5.16 | 13.4 | 43.9
AACUUGGCUAAUAGUCGCAAG [Fam3.1 aminoacylation ribozyme variant] | 2 | 2.42 | 2.62 | 1.71 | 2.31 | 2.88
AUUUACCUAGGUCGUCGGGUG [Fam2.2 aminoacylation ribozyme variant] | 1.61 | 1.46 | 1.88 | 1.82 | 0.963 | 9.82
CUACUUCAAACAAUCCCUCUG [Fam1A.1 aminoacylation ribozyme variant] | 0.68 | 0.74 | 0.558 | 0.525 | 0.44 | 0.842
CCACUUGAAACAAUCGGUCUG [Fam1A.1 aminoacylation ribozyme variant] | 1.19 | 1.15 | 1.03 | 1.18 | 0.785 | 0.824
AAGUUUGCAAUUAGUCGCAAG [Fam3.1 aminoacylation ribozyme variant] | 0.922 | 1.08 | 0.909 | 0.898 | 0.6 | 0.786
CUAGUUGAAACAAUCGGUCUG [Fam1A.1 aminoacylation ribozyme variant] | 0.974 | 0.923 | 0.841 | 0.828 | 0.834 | 0.861
AUUCCCCUGGUCCUCGAGUGA [Fam2.1 aminoacylation ribozyme variant] | 6.08 | 3.65 | 7.24 | 3.77 | 6.87 | 42.5
CUACUUCAAACAAUCAGUGUG [Fam1A.1 aminoacylation ribozyme variant] | 0.936 | 0.867 | 0.745 | 0.972 | 0.975 | 2.23
AUUCCCCAAGGUCAUCGGGUG [Fam2.2 aminoacylation ribozyme variant] | 27 | 15.9 | 31.1 | 14.8 | 20.9 | 218
AUUACUCAGGUCAUCGAGUGA [Fam2.1 aminoacylation ribozyme variant] | 3.58 | 2.41 | 3.72 | 2.57 | 4.11 | 13.2
CUACUUCAAACACUCGGUCUU [Fam1A.1 aminoacylation ribozyme variant] | 1.81 | 1.71 | 1.49 | 1.74 | 1.18 | 1.56
AUUCACCCAGGUCAUGGGGUG [Fam2.2 aminoacylation ribozyme variant] | 10.2 | 5.18 | 13.8 | 5.23 | 8.21 | 67.1
AUUCUCCUAGGUCAUCGGGAG [Fam2.2 aminoacylation ribozyme variant] | 1.81 | 1.49 | 1.77 | 1.33 | 1.71 | 5.17

Sequence | self-aminoacylation (biotinyl-Met-oxazolone) | self-aminoacylation (biotinyl-Ile-oxazolone) | self-aminoacylation (biotinyl-Leu-oxazolone) | self-aminoacylation (biotinyl-Val-oxazolone) | self-aminoacylation (biotinyl-Trp-oxazolone) | self-aminoacylation (biotinyl-Phe-oxazolone)
AUUCACAUAGGUCAUCGGGUU [Fam2.2 aminoacylation ribozyme variant] | 2.13 | 1.9 | 2.22 | 1.76 | 1.97 | 8.48
CCACACUUCCAGCAUUCGGUC [Fam1B.1 aminoacylation ribozyme variant] | 2.05 | 2.48 | 2.42 | 2.81 | 2.58 | 1.12
AUUCACAUAGGUCAUCGGGUC [Fam2.2 aminoacylation ribozyme variant] | 1.39 | 1.51 | 1.34 | 1.65 | 1.49 | 0.659
AUUAACCUAGGUCAUCGGGUA [Fam2.2 aminoacylation ribozyme variant] | 33.2 | 17.7 | 46.4 | 13.9 | 20.3 | 262
CUUCACCUAGGUCAUCGGGGG [Fam2.2 aminoacylation ribozyme variant] | 2.35 | 2.31 | 1.86 | 2.37 | 3.57 | 3.92
ACGUUUGCUGAUAGUCGCAAG [Fam3.1 aminoacylation ribozyme variant] | 1.12 | 1.52 | 1.57 | 1.35 | 1.69 | 4.7
AUUCACCUAGGUUACCGGGUG [Fam2.2 aminoacylation ribozyme variant] | 3.68 | 2.49 | 3.98 | 2.63 | 3.78 | 18.5
AGUACCCUGGUCGUCGAGUGA [Fam2.1 aminoacylation ribozyme variant] | 1.05 | 1.37 | 1.53 | 1.24 | 1.54 | 8.09
CUACUUCAAGCAAUCGGACUG [Fam1A.1 aminoacylation ribozyme variant] | 0.714 | 0.86 | 1.04 | 0.861 | 2.58 | 4.71
AAGUUCGCUAAUAGUCGCCAG [Fam3.1 aminoacylation ribozyme variant] | 1.84 | 2.33 | 1.79 | 1.81 | 2.27 | 11.6
AUAAUCCUGGUCAUCGAGUGA [Fam2.1 aminoacylation ribozyme variant] | 7.24 | 3.72 | 6.95 | 3.48 | 7.96 | 9.11
AUUAACCUAGGCCAUCGGGUG [Fam2.2 aminoacylation ribozyme variant] | 3.21 | 2.31 | 4.62 | 2.45 | 3.52 | 15.1
GCACACUUCAACCAAUCGGUC [Fam1B.1 aminoacylation ribozyme variant] | 2.02 | 2.39 | 2.93 | 2.43 | 44 | 60.5
AUUCACCUAGGGCAUCGAGUG [Fam2.2 aminoacylation ribozyme variant] | 1.45 | 1.26 | 1.65 | 1.2 | 0.91 | 1.76
CCACACUUCAGGCAAUCGGCC [Fam1B.1 aminoacylation ribozyme variant] | 2.15 | 2.61 | 4.67 | 3.89 | 3.69 | 13.1
AAGAUUGCUAUUAGUCGCAAG [Fam3.1 aminoacylation ribozyme variant] | 1.55 | 1.73 | 1.62 | 1.6 | 1.87 | 1.79
AUACACCUAGGUCAUUGGGUG [Fam2.2 aminoacylation ribozyme variant] | 2.36 | 2.02 | 2.14 | 2.24 | 3.17 | 13.3
AAUUUGGCUAAUAGUCGCAAG [Fam3.1 aminoacylation ribozyme variant] | 1.82 | 1.79 | 1.96 | 1.7 | 1.99 | 2.14
GUUCACUUAGGUCAUCGGGUG [Fam2.2 aminoacylation ribozyme variant] | 4.97 | 3.48 | 6.01 | 3.12 | 5.21 | 27.9
CUACUUCAAACAAUUCGUCUG [Fam1A.1 aminoacylation ribozyme variant] | 0.722 | 0.827 | 0.628 | 0.859 | 0.602 | 0.738
AUUCACCUAGAUCAUCGGGUG [Fam2.2 aminoacylation ribozyme variant] | 2.8 | 2.1 | 3.47 | 2.22 | 2.95 | 14.9
AAGCUUGCUCAUAGUCGCAAG [Fam3.1 aminoacylation ribozyme variant] | 2.05 | 1.99 | 1.52 | 1.99 | 1.59 | 2.34
CCACACUUCAAGCAGUCAGUC [Fam1B.1 aminoacylation ribozyme variant] | 0.562 | 0.788 | 0.717 | 0.91 | 0.54 | 0.947
AUUCACGUAGUUCAUCGGGUG [Fam2.2 aminoacylation ribozyme variant] | 3.49 | 3.07 | 3.88 | 3.45 | 4.72 | 21.9
AUUACCCCGGUCAUCGAGUCA [Fam2.1 aminoacylation ribozyme variant] | 0.928 | 1.24 | 1.06 | 0.988 | 0.734 | 1.3
